Source: patent US20190218304A1 (INNATE PHARMA, published 2019)
Residue numbers refer to the chain shown, from its start.

What was measured:
CD39 mutant 19 = molecular target: T1, CD39 mutant 19 (human, UniProt P49961 1-510); assay: flow cytometry on Hek-293T cells transfected with CD39 mutant 19 [panel M19]
T1 construct: Expressed on transfected Hek-293T cells; also called M19
T1 chain: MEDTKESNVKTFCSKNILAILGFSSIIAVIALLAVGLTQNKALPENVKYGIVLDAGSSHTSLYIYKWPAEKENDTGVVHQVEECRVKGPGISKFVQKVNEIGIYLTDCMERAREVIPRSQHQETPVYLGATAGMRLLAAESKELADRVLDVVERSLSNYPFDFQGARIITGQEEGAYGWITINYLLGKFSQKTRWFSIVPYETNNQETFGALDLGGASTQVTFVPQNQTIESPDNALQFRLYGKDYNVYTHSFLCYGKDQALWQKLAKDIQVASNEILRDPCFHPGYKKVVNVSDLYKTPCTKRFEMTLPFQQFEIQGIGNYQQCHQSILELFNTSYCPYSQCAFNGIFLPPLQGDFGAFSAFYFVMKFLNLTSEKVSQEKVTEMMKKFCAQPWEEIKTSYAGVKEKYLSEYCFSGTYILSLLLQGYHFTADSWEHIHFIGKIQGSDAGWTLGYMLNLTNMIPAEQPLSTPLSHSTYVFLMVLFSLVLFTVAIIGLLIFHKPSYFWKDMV

[1] = molecular target: T2, human CD39 expressed on cells (human, UniProt P49961 1-510); assay: flow cytometry titration on CHO cells expressing human CD39, labeled secondary antibody [panel CHO-huCD39]
T2 construct: On CHO transfectants, HEK-293T transfectants (wild type), Ramos lymphoma cells or monocyte-derived dendritic cells, as named under assay; also called huCD39; CHO-huCD39
T2 sequence: T1 chain with A138R, A139M, K142E
Protocol: (§1) Cells were incubated with various concentration of unlabeled anti-CD39 antibody from 30 μg/ml to 5×10⁻⁴ μg/ml, for 30 minutes at 4° C. After washes, cells were incubated with Goat anti-mouse H+L labeled secondary antibody for 30 min at 4° C.

[2] = molecular target: T3, murine CD39 expressed on CHO cells (murine, UniProt P55772 1-510); assay: flow cytometry titration on CHO cells expressing murine CD39 [panel CHO-moCD39]
T3 construct: whole, on cells; also called CHO-moCD39; mouse CD39
T3 sequence (looked up): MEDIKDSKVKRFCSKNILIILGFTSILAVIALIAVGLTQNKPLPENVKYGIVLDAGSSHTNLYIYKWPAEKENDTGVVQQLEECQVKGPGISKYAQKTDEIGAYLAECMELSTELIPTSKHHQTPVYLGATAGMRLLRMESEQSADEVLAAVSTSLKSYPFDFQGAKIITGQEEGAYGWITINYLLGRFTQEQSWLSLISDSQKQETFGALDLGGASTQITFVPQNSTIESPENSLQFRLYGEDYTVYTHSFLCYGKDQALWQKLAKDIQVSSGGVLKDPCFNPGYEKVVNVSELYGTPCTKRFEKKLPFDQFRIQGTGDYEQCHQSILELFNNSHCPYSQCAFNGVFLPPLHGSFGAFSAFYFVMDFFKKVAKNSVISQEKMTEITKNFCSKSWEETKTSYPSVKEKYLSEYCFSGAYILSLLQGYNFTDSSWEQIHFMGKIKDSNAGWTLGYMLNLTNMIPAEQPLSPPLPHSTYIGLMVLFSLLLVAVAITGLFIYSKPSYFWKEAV
Protocol: as §1

CD39 mutant 15 = molecular target: T4, CD39 mutant 15 (human, UniProt P49961 1-510); assay: flow cytometry on Hek-293T cells transfected with CD39 mutant 15 [panel M15]
T4 construct: Expressed on transfected Hek-293T cells; also called M15
T4 chain: T1 chain with K87A, E100A, D107A, A138R, A139M, K142E

binding result (CD39 mutant 19): no binding
EC50 (read off the curve) [1]: ~0.2 µg/mL
binding result [2]: no binding
binding result (CD39 mutant 15): binds
B1: antibody I-394 (antibody, human IgG1, kappa, V domains shown)
VH: EVQLQQSGPELVKPGASVKMSCKASGYTFTDYNMHWVKQSHGRTLEWIGYIVPLNGGSTFNQKFKGRATLTVNTSSRTAYMELRSLTSEDSAAYYCARGGTRFAYWGQGTLVTVSA
VL: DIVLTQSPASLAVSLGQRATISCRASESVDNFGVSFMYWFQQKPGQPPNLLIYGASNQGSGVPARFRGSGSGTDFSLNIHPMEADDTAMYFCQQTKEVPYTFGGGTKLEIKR
notes: The hybridoma-derived mouse form was used in early screening
